Measured values reported in the supplement of paper PMC9170038.

Assays:
Conditions in all cases: FMN input: 0 or 200 uM; Eterna round: R93 (includes R88 designs)
[1] = test system: MS2 coat protein; experiment: apparent KD of MS2 coat protein, switch ON state; designed switch direction (-1 OFF switch, 1 ON switch): 1; higher = weaker reporter binding
Outline: (§1)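 Designed RNA switches were transcribed on-chip from Illumina sequencing clusters. They were then titrated with SNAP-549-labelled MS2 coat protein (twofold steps, 0.7 or 1.5 nM to 3 µM; 0.8–1.5 h to 10–20 min per step) in 100 mM Tris-HCl pH 7.5, 80 mM KCl, 4 mM MgCl2, without or with constant ligand. Apparent KD is the per-design median of normalised cluster binding-curve fits.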

[2] = test system: MS2 coat protein; experiment: apparent KD of MS2 coat protein, switch OFF state (with FMN for OFF switches, without FMN for ON switches); designed switch direction (-1 OFF switch, 1 ON switch): 1; higher = weaker reporter binding
Outline: as §1

[3] = test system: MS2 coat protein; experiment: apparent KD of MS2 coat protein, switch ON state; designed switch direction (-1 OFF switch, 1 ON switch): -1; higher = weaker reporter binding
Outline: as §1

[4] = test system: MS2 coat protein; experiment: apparent KD of MS2 coat protein, switch OFF state (with FMN for OFF switches, without FMN for ON switches); designed switch direction (-1 OFF switch, 1 ON switch): -1; higher = weaker reporter binding
Outline: as §1

| Sequence | apparent KD of MS2 coat protein [1] | apparent KD of MS2 coat protein [2] | apparent KD of MS2 coat protein [3] | apparent KD of MS2 coat protein [4] |
| --- | --- | --- | --- | --- |
| AAAAAAAAAACUCAGGAUAUAGAUUGUAGAACAUGAGGAUCACCCAUGUAGUGAAAGAAGAGAGACUAGAAGGGAGUAAAAAAAAA [Same State 2 #3] | 0.0432 µM | 0.0691 µM |  |  |
| AAAAAAAAACGUGAGGAUAUGUGAAAAUUAACAUGAGGAUCACCCAUGUGAUAAAAAAAAAAAAAACAGAAGGUACAAAAAAAAAA [Same 2 again I have no idea] | 0.0212 µM | 0.0284 µM |  |  |
| AAAAAAAAAGUCGAGGAUAUCCACAUGGCGACAUGAGGAUCACCCAUGUGAAGAAAAGCACAUGAGGAGAAGGCGACAAAAAAAA [Same State 2.7a (Tightrope mod)] | 0.0327 µM | 0.225 µM |  |  |
| AAAAAAAAAUCACAGGAUAUACAAAAAAAAACAUGAGGAUCACCCAUGUAAAAAAAAAAAAAAAAGUAGAAGGGUGAUCCAAAAAA | 0.0121 µM | 0.00928 µM |  |  |
| AAAAAACAAAGAGAGGAUAUCCAAAAAAAAACAUGAGGAUCACCCAUGUAAAGAAAUUUAAAAUGGGAGAAGGCUCUUUGAAAAA [Same State 2.6b ( Helter Skelter 1)] | 0.0334 µM | 0.0309 µM |  |  |
| AAAAAACAAAGAGAGGAUAUCCUGAAAAAAACAUGAGGAUCACCCAUGUAAAGAAAUUUAAAAUGGGAGAAGGCUCUUUGAAAAA [Same State 2.6c ( Helter Skelter 1)] | 0.0246 µM | 0.0223 µM |  |  |
| AAAAAACAUGAGGAUCACCCAUGUAAUACAACAUCAGGAUAUUGGCUUGACUAUGUCUUACAAGAAGGGAUGAAAA [Same State 1.3d (Same State 1 - Omei 2 )] | 0.0305 µM | 0.0815 µM |  |  |
| AAAAAACAUGAGGAUCACCCAUGUAGAAACAUGGGAGGAUAUACAAAGACGAAAGUCAAAGUAGAAGGCCUAAAGA [Mat - Same State 1 - Mod - D162] | 0.162 µM | 0.182 µM |  |  |
| AAAAAACAUGAGGAUCACCCAUGUAGAAACAUGGGAGGAUAUACGAAGACGAAAGUCAAAGUAGAAGGCCUAAGAG [Garnet 89] | 0.183 µM | 0.592 µM |  |  |
| AAAAAACAUGAGGAUCACCCAUGUGCAAAAUUCGCAGGAUAUUCUUUUUUUAAAUGGGAGGGAGAAGGGUGUAAAA [Nob's Hobby 20 - Jieux - Same State 1] | 0.0208 µM | 0.0213 µM |  |  |
| AAAAACAUGGUGCAGGAUAUAUUAAUAGUCACAUGAGGAUCACCCAUGUUCAUUUAUAUGAACGAGUAGAAGGGCGAUGAAAAAA [Mat - Same state - Malcolm Mod - D111] | 0.247 µM | 0.41 µM |  |  |
| AAAACACAUGAGGAUCACCCAUGUAGAAAUACGGGAGGAUAUACGAAAACGAAAGACAAAGUAGAAGGCCUAAAAG [saturn 7] | 0.0387 µM | 0.053 µM |  |  |
| AAAACACAUGAGGAUCACCCAUGUAGAAAUAUGGGAGGAUAUACGAAAACGAAAGACAAAGUAGAAGGCCUAAAAG [saturn 4] | 0.0416 µM | 0.153 µM |  |  |
| AAAACUACAGAUCAGGAUAUGUUUAGGUAAACAUGAGGAUCACCCAUGUGCACCUGAUAAACAACACAGAAGGGAUAACGUGGGA [Geerreleon] | 0.0207 µM | 0.0257 µM |  |  |
| AAAAGACAUGAGGAUCACCCAUGUCAAAACAUAGGAGGAUAUGUCGUGAAAAAAGACUUGGCAGAAGGCCUUUGUC [SS1 - 48] | 0.0173 µM | 0.0193 µM |  |  |
| AAAAGACAUGAGGAUCACCCAUGUCAAAACAUAGGAGGAUAUGUCUGGAAAAAAGACUGGACAGAAGGCCUUUGUC [SS1 - 59] | 0.0155 µM | 0.0189 µM |  |  |
| AAAAGAGCGACACAGGAUAUGUUGACUCUAACAUGAGGAUCACCCAUGUGCAUUUAGGGUCGUGCGCAGAAGGGUGUAGCUCGGA [Laesbibiti] | 0.0117 µM | 0.0247 µM |  |  |
| AAAAUAAAAUAAAAGGAUAUAAAAUAAAAAACAUGAGGAUCACCCAUGUGAAAACAUGAAAAAAAAAAGAAGGAAAAAUAAAAAA [SS2: 76 No MS2] | 0.0213 µM | 0.0316 µM |  |  |
| AAAGAAGAAAGACAGGAUAUGGAUGGGUAAACAUGAGGAUCACCCAUGUAUAAGAAAGAAAGAAACCAGAAGGGUCAAAAGAAAA [Darius III] | 0.0427 µM | 0.551 µM |  |  |
| AAAUAAAUGACUAAGGAUAUAUCGAAGAAAACAUGAGGAUCACCCAUGUGAUAAUAAAAAGGGUGGUAGAAGGUAGUCAACAAAC [Mod 4 of Pariah 4 by Hyphema in Round 1] | 0.0502 µM | 0.088 µM |  |  |
| GAAAAACAUGAGGAUCACCCAUGUAAGGAUAUGCUAAAAAACACGGAAAAACGUGAUAGCAGAAGGUACAAAAG [Mat - Exclusion 1 - Eli mod - D88] |  |  | 0.0198 µM | 0.044 µM |

| Sequence | apparent KD of MS2 coat protein [1] | apparent KD of MS2 coat protein [2] | apparent KD of MS2 coat protein [3] | apparent KD of MS2 coat protein [4] |
| --- | --- | --- | --- | --- |
| GAAAAACAUGAGGAUCACCCAUGUCAGGAUAUCCAAAUAAAAAUAAAAUAAAAUAAAAGGAGAAGGGACAAAAG [Mat - Same state - Mayanna Mod - D101] |  |  | 0.0424 µM | 0.04 µM |
| GAAAAGGUAGGAUAUACGAAAAAAAAGGGUAAAAAAUAAAAACAUGAGGAUCACCCAUGUAGAAGGACCAAAAG [Mat - Exclusion 2 - Tesla mod - D40] |  |  | 0.0288 µM | 0.0553 µM |
| GAAAAGUCAGGAUAUGCAGACAAAGCAAAAAAGCAAUGUCUGCAGAAGGGACAUGAGGAUCACCCAUGUAAAAG [Mat - Exclusion 4 - Mayanna - D116] |  |  | 0.0611 µM | 0.0701 µM |
| GAAAAGUCAGGAUAUGUGGAAAAAAUAAAAAAAAUAAAAACACAGAAGGGACAUGAGGAUCACCCAUGUUAAAG [Mat - Exclusion 4 - Mayanna - D138] |  |  | 0.0415 µM | 0.0325 µM |
| GAAAAGUGAGGAUAUACAUGAGGAUCACCCAUGUGUAUAAAAAAAUACACAAAAGAAAGUAGAAGGCACUAAAA [Mat - Exclusion 3 - Mayanna mod - D111] |  |  | 0.0258 µM | 0.0659 µM |
| GAAUGCAGAGGAUAUACGGGAUAGCAUCGAAAGAUGCUAAAACAUGAGGAUCACCCAUGUAGAAGGCUGCAGAA [JL Mod 02] |  |  | 0.058 µM | 0.144 µM |
| GAUAGUGAAGGAUAUACUGGAGGAGUGCGAUAAAAGAAAGAACAUGAGGAUCACCCAUGUAGAAGGUCAGAAGU [JR_Exc002_Sub1226] |  |  | 0.0247 µM | 0.0273 µM |
| GAUGAGUGAGGAUAUGUAAAAAAAAGAGAAGAGAAGAGAGAACAGAAGGCACAUGAGGAUCACCCAUGUAGGGA [Default title] |  |  | 0.226 µM | 0.322 µM |
| GGAAAACAUGAGGAUCACCCAUGUAAGGAUAUGCAAAAAAAAAAGGAUAUAGAAGGAAGCAGAAGGUACAAAGG [salish99-ex1-28] |  |  | 0.0245 µM | 0.0551 µM |
| GGAAAACAUGAGGAUCACCCAUGUAAGGAUAUGCUAGGGAAGGAAAAAAACCCACCAGGCAGAAGGUACUAAAG [Janelle Amethyst 18 Mod 5 - Jieux - Exclusion 1] |  |  | 0.0229 µM | 0.0414 µM |
| GGAAAGCGAGGAUAUACAUGAGGAUCACCCAUGUUAACAAACAAACAAACAAACAAAAGUAGAAGGCGCAAAAU [Exclusion 3 This and That] |  |  | 0.0426 µM | 0.0411 µM |
| GGGUGGCGAGGAUAUACAUGAGGAUCACCCAUGUGAGAGAAAAAAGUGAGAAAGAAAAGUAGAAGGCGCUGCCG [salish99-ex3-56] |  |  | 0.0479 µM | 0.329 µM |
| GGUUGGCGAGGAUAUACAUGAGGAUCACCCAUGUGAGAGAAUAAAGUGAGAAAGAAAAGUAGAAGGCGCUGACG [salish99-ex3-44] |  |  | 0.0637 µM | 0.116 µM |
| GGUUGUCGAGGAUAUACAUGAGGAUCACCCAUGUGAGAGAAAAAAGUGAGAAAGAAAAGUAGAAGGCGAUGACG [salish99-ex3-58] |  |  | 0.0382 µM | 0.18 µM |
| GUAGAGUGAGGAUAUGAAUAAAAGAAGAGAAAGAGAAAGCAUCAGAAGGCACAUGAGGAUCACCCAUGUAUGAA [JR_Exc004_Sub1225] |  |  | 0.0292 µM | 0.0253 µM |
| GUGUACAGAGGAUAUACUAAAGCUAGGAAACUAGCAAGAUCACAUGAGGAUCACCCAUGUAGAAGGCUGUACAC [Ex2: 740] |  |  | 0.0581 µM | 0.5 µM |
| UAAAAACAUGAGGAUCACCCAUGUGAGGAUAUACGAAAGUAGAAGGCACUAAAAUAAAAUAGAAGGAUAAAAUA [Meechl Ex1 R2 m1] |  |  | 0.0232 µM | 0.0375 µM |
| UAAAAACAUGAGGAUCACCCAUGUGAGGAUAUGUGAAAAAAAAAAAAAAAAAAAACAAGCAGAAGGCACAAAAA [JR_Exc001_Sub020] |  |  | 0.0676 µM | 0.584 µM |
| UACGGACAUGAGGAUCACCCAUGUGAGGAUAUCGAUACCGAUAGCAUAAUAUAAUCGGCGAGAAGGCACAGCGU [JR_Exc001_Sub505] |  |  | 0.0399 µM | 0.0547 µM |
| UUUAUGUGAGGAUAUCAGUAGUAAAAAAAUAAAAUUACUACUGAGAAGGCACAUGAGGAUCACCCAUGUGUCUC [EX4 350: Super Stable 50] |  |  | 0.0175 µM | 0.015 µM |
